± gives the uncertainty stated by the source.
Experiment: self-splicing fitness, log relative to wild type (ln ratio); higher = more splicing; Tetrahymena group I intron in knt gene, E. coli kanamycin selection, DiMSum; sequences stand for … in CUCUCU…GGAGGGAAAAGUUAUCAGGCAUGCACCUGGUAGCUAGUCUUUAAACCAAUAGAUUGCAUCGGUUUAAAAGGCAAGACCGUCAAAUUGCGGGAAAGGGGUCAACAGCCGUUCAGUACCAAGUCUCAGGGGAAACUUUGAGAUGGCCUUGCAAAGGGUAUGGUAAUAAGCUGACGGACAUGGUCCUAACCACGCAGCCAAGUCCUAAGUCAACAGAUCUUCUGUUGAUAUGGAUGCAGUUCACAGACUAAAUGUCGGUCGGGGAAGAUGUAUUCUUCUCAUAAGAUAUAGUCGGACCUCUCCUUAAUGGGAGCUAGCGGAUGAAGUGAUGCAACACUGGAGCCGCUGGGAACUAAUUUGUAUGCGAAAGUAUAUUGAUUAGUUUUGGAGUACUCGUGGUCG
Procedure, shortened: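 A randomised library covering all eight P1ex-region intron nucleotides was built with the intron in the knt kanamycin-resistance gene on pET-22b(+) and held in E. coli BL21(DE3). Cells were grown overnight at 37°C or 30°C on LB agar, with or without 25 μg/mL kanamycin, plus 100 μg/mL carbenicillin, 50 μM IPTG and 0.2% rhamnose, and pooled colonies were amplicon-sequenced on an Illumina HiSeq 2500. DiMSum fitness is the error-weighted combination of wild-type-normalised replicate fold changes, kanamycin versus none.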

Sequence	self-splicing fitness (ln) (30 °C)	self-splicing fitness (ln) (37 °C)
AAGAAGCAAUAUUACGGGGG	-2.79 ± 0.21	-2.09 ± 0.23
AAGAAGCAAUAUUACGGUAG	-3.76 ± 0.19	-1.83 ± 0.17
AAGAAGCAAUAUUACGGUUG	-2.72 ± 0.092	-1.32 ± 0.11
AAGAAGCAAUAUUACGUAAC	-2.35 ± 0.14	-1.2 ± 0.12
AAGAAGCAAUAUUACGUACG	-0.925 ± 0.092	-0.719 ± 0.11
AAGAAGCAAUAUUACGUCAC	-3.46 ± 0.21	-3 ± 0.28
AAGAAGCAAUAUUACGUGCG	-0.93 ± 0.079	-0.0711 ± 0.1
AAGAAGCAAUAUUACGUUAC	-3.33 ± 0.17	-3.57 ± 0.25
AAGAAGCAAUAUUACGUUCU	-2.55 ± 0.11	-1.26 ± 0.1
AAGCAGCAAUAUUACGAAGA	-3.03 ± 0.19	-1.44 ± 0.097
AAGCAGCAAUAUUACGACCC	-1.78 ± 0.14	-0.112 ± 0.15
AAGCAGCAAUAUUACGACGC	-0.811 ± 0.092	-0.525 ± 0.13
AAGCAGCAAUAUUACGACUC	-0.122 ± 0.097	0.677 ± 0.13
AAGCAGCAAUAUUACGAGUG	-2.99 ± 0.1	-2.69 ± 0.11
AAGCAGCAAUAUUACGAUUG	-2.54 ± 0.13	-1.9 ± 0.14
AAGCAGCAAUAUUACGCAAC	-2.62 ± 0.12	-1.49 ± 0.13
AAGCAGCAAUAUUACGCACA	-0.331 ± 0.082	0.0315 ± 0.11
AAGCAGCAAUAUUACGGACG	-2.62 ± 0.14	-0.565 ± 0.14
AAGCAGCAAUAUUACGGACU	-0.985 ± 0.078	-0.121 ± 0.11
AAGCAGCAAUAUUACGGAGC	-3.81 ± 0.37	-3.05 ± 0.23

Sequence	self-splicing fitness (ln) (30 °C)	self-splicing fitness (ln) (37 °C)
AAGCAGCAAUAUUACGGGCU	-1.64 ± 0.14	-1.93 ± 0.21
AAGCAGCAAUAUUACGGGUG	-3.43 ± 0.13	-1.85 ± 0.1
AAGCAGCAAUAUUACGGUAA	-1.25 ± 0.091	-0.944 ± 0.094
AAGCAGCAAUAUUACGGUCA	-1.19 ± 0.088	0.242 ± 0.1
AAGCAGCAAUAUUACGUACA	-1.43 ± 0.091	-0.617 ± 0.11
AAGCAGCAAUAUUACGUAUC	-3.07 ± 0.1	-1.62 ± 0.12
AAGCAGCAAUAUUACGUCCG	-2.15 ± 0.12	-1.13 ± 0.11
AAGCAGCAAUAUUACGUGAA	-1.35 ± 0.067	-1.05 ± 0.077
AAGCAGCAAUAUUACGUGAG	-1.07 ± 0.045	-0.437 ± 0.066
AAGCAGCAAUAUUACGUUAC	-3.42 ± 0.29	-1.35 ± 0.18
AAGCAGCAAUAUUACGUUCC	-1.73 ± 0.11	-1.54 ± 0.17
AAGGAGCAAUAUUACGACGC	-4.09 ± 0.43	-1.13 ± 0.21
AAGGAGCAAUAUUACGACUA	-1.51 ± 0.17	-0.705 ± 0.27
AAGGAGCAAUAUUACGAGCA	-2.24 ± 0.45	-0.592 ± 0.4
AAGGAGCAAUAUUACGAUCA	-1.18 ± 0.36	–
AAGGAGCAAUAUUACGAUCC	–	0.127 ± 0.31
AAGGAGCAAUAUUACGCCGC	–	-2.04 ± 0.5
AAGGAGCAAUAUUACGCGAU	-2.06 ± 0.15	-2.29 ± 0.28
AAGGAGCAAUAUUACGCUAU	-3.76 ± 0.4	-1.69 ± 0.26

Source: the supplement of paper PMC7877785
